Experimental data reported in article PMC10516654, “Structural and functional characterization of MrpR, the master repressor of the Bacillus subtilis prophage SPβ”.

Molecular target: T1, MrpR (Bacillus subtilis prophage SPβ, UniProt O34558 1-325)
T1 sequence: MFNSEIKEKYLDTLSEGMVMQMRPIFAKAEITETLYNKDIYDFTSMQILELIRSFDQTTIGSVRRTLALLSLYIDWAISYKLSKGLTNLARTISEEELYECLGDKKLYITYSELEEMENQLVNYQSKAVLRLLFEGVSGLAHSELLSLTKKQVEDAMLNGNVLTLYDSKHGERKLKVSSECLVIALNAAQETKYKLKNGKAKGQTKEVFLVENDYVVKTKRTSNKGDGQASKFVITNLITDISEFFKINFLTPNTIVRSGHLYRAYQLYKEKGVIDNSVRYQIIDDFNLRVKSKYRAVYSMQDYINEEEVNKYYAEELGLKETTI
Assay: ITC; ITC: 20 mM HEPES-Na pH 7.5, 200 mM NaCl, 20 mM KCl, 25 C, 20 uM DNA in cell, protein in syringe, one set of sites; EMSA: same buffer plus 50 ug/ml herring sperm DNA, 50 nM DNA, RT 15 min, 6% native PAGE 0.5x TBE
Details: protein: recombinant; tags: C-terminal His6; blunt

B1: aimR promoter ITC duplex (LC292/LC293) (dsDNA)
DNA 1: GAATTTTAAAGAGATTACAAATACAAAAAATATGTATAAAATAATTGACTCGTAATG
DNA 2: CATTACGAGTCAATTATTTTATACATATTTTTTGTATTTGTAATCTCTTTAAAATTC
Q: With B1 as the binder, how does the Kd read?
A: 238 ± 80 nM
